This passage reports K half results from article PMC1904298.

This data set concerns ϕC31 integrase (Streptomyces phage ϕC31?). Nature of the data set: EMSA. Background: A gel shift assay detects complexes by their altered migration in electrophoresis.
In turn, attB C+15G, 72 bp fragment displayed a K half of 72.7 nM.

Regarding attB C-2A:G+2T, 72 bp fragment, the K half came to 56.7 nM.

With attB C-2G, 72 bp fragment, the K half came to 55.7 nM.

Substance attB G+2C, 72 bp fragment had a K half of 58.3 nM.

attB G+16A, 72 bp fragment showed a K half of 53.3 nM.

attB G-16T, 72 bp fragment displayed a K half of 66 nM.

Take attB G-16T:G+16A, 72 bp fragment: the K half turned out to be 61.3 nM.

attB T-15C, 72 bp fragment yielded a K half of 68.3 nM.

As for attB wt, 72 bp fragment, the K half was determined as 61.3 nM.
